Tested on: primer DG48 annealed to M13 mp18 template
Assay: limiting template, primer extension competition assay (ddNTP incorporation assay)
Type: biochemical
Conditions: ratio of concentrations for 50% inhibition by Zowie-ddCTP vs. ddCTP
Method: The ability of the enzymes of this invention to efficiently incorporate nucleotides labeled with fluorescein family dyes is measured by ddNTP incorporation assays. One such assay is a primer extension competition assay conducted under conditions of limiting template. In this assay, a primer DG48 (5′-[…]), (SEQ ID NO: 11), bound to M13 mp18 template (Innis et al., 1988, Proc. Natl. Acad. Sci. USA 85:9436) is extended in the presence of [α-^33P]dCTP and excess enzyme with various levels of a fluorescently labeled ddNTP, Zowie-ddCTP. Because the incorporation of a ddCTP residue terminates the extension reaction, the more readily a DNA polymerase incorporates a ddCTP into an extended primer, the less [α-^33P]dCTP can be incorporated. Thus, as the efficiency of fluorescently labeled ddCTP incorporation increases, the extent of inhibition of DNA synthesis is increased. The reactions were also performed with various levels of an unlabeled ddCTP. […]
The relative abilities of G46D F667Y Taq, G46D F667Y E681K Taq and F730Y Tma30 DNA polymerases to incorporate a fluorescein dye family-labeled ddCTP were compared by use of a limiting template, primer extension competition assay. […] In this competition assay, because the incorporation of a ddCTP terminates the extension reaction, the more readily the polymerase incorporates a ddCTP into an extended primer, the less [α-^33P]dCTP can be incorporated. […]

B1: G46D F667Y E681K Taq: thermostable Taq DNA polymerase with G46D, F667Y and E681K mutations, encoded by plasmid pLK113 (protein, UniProt P19821 1-832, looked up, variant G46D F667Y E681K)
DNA polymerase I, thermostable: MRGMLPLFEPKGRVLLVDGHHLAYRTFHALKGLTTSRGEPVQAVYDFAKSLLKALKEDGDAVIVVFDAKAPSFRHEAYGGYKAGRAPTPEDFPRQLALIKELVDLLGLARLEVPGYEADDVLASLAKKAEKEGYEVRILTADKDLYQLLSDRIHVLHPEGYLITPAWLWEKYGLRPDQWADYRALTGDESDNLPGVKGIGEKTARKLLEEWGSLEALLKNLDRLKPAIREKILAHMDDLKLSWDLAKVRTDLPLEVDFAKRREPDRERLRAFLERLEFGSLLHEFGLLESPKALEEAPWPPPEGAFVGFVLSRKEPMWADLLALAAARGGRVHRAPEPYKALRDLKEARGLLAKDLSVLALREGLGLPPGDDPMLLAYLLDPSNTTPEGVARRYGGEWTEEAGERAALSERLFANLWGRLEGEERLLWLYREVERPLSAVLAHMEATGVRLDVAYLRALSLEVAEEIARLEAEVFRLAGHPFNLNSRDQLERVLFDELGLPAIGKTEKTGKRSTSAAVLEALREAHPIVEKILQYRELTKLKSTYIDPLPDLIHPRTGRLHTRFNQTATATGRLSSSDPNLQNIPVRTPLGQRIRRAFIAEEGWLLVALDYSQIELRVLAHLSGDENLIRVFQEGRDIHTETASWMFGVPREAVDPLMRRAAKTINYGVLYGMSAHRLSQKLAIPYEEAQAFIERYFQSFPKVRAWIEKTLEEGRRRGYVETLFGRRRYVPDLEARVKSVREAAERMAFNMPVQGTAADLMKLAMVKLFPRLEEMGARMLLQVHDELVLEAPKERAEAVARLAKEVMEGVYPLAVPLEVEVGIGEDWLSAKE
With B1 the “Zowie-ddCTP/ddCTP (ratio of concentrations for 50% inhibition)” value was 1.2.

Reference: patent US7598032B2, “Thermostable DNA polymerases incorporating nucleoside triphosphates labeled with fluorescent dyes” (Roche Molecular Systems, priority 1997, dated 2009)
